Data: article PMC4376459, “CXCR3 antagonist VUF10085 binds to an intrahelical site distinct from that of the broad spectrum antagonist TAK-779” (British Journal of Pharmacology, 2015)

How the values were obtained:
[1] = target: T1, CXCR3 (Homo sapiens, UniProt P49682); assay: Activity at CXCR3 (data not shown)
T1 sequence (P49682 1-368): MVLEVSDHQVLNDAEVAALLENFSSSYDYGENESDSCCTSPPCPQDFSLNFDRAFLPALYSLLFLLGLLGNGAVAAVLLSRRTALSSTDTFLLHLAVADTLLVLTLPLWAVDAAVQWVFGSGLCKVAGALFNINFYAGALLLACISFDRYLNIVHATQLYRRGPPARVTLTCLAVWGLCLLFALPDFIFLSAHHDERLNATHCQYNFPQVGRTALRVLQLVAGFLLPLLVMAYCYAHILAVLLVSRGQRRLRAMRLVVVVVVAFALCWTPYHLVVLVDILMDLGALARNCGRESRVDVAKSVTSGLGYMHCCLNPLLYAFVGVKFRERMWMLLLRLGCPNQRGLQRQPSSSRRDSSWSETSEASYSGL

[2] = target: T2, CXCR3 I279A (Homo sapiens, UniProt P49682, I279A); assay: Whole-cell 125I-CXCL11 binding assay, L1.2 transfectants; conditions: I279A versus WT
T2 construct: expressed in transfected cells; host or cells: murine pre-B cell line L1.2, transient transfection
T2 sequence (P49682 1-368 I279A): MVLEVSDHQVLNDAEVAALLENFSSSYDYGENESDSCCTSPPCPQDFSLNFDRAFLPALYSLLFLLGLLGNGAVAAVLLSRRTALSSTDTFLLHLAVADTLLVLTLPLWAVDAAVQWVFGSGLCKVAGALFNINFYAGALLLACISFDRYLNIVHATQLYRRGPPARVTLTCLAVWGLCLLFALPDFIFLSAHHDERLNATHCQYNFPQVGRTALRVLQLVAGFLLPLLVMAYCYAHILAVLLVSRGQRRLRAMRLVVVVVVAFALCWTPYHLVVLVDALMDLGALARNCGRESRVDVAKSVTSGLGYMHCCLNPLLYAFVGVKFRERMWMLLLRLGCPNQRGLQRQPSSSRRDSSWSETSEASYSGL

[3] = target: T3, CXCL11 (Homo sapiens, UniProt O14625); assay: homologous competition binding with 125I-CXCL11 on L1.2 transfectants
T3 chain: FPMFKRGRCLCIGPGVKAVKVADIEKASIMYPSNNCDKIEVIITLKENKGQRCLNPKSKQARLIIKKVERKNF

Molecule: CCCCOCCOc1ccc(-c2ccc3c(c2)/C=C(/C(=O)Nc2ccc([S@@+]([O-])Cc4cncn4CCC)cc2)CCCN3CC(C)C)cc1 [TAK-652]
- activity at CXCR3 [1]: devoid of activity

Molecule: CCOc1ccc(-n2c(C(C)N(Cc3cccnc3)C(=O)Cc3ccc(OC(F)(F)F)cc3)nc3ncccc3c2=O)cc1 (stereo not drawn) [VUF 10085, N-1R-[3-(4-ethoxy-phenyl)-4-oxo-3,4-dihydro-pyrido[2,3-d]pyrimidin-2-yl]-ethyl-N-pyridin-3-ylmethyl-2-(4-trifluoromethoxy-phenyl)-acetamide]
- decrease in potency, ligand binding [2]: twofold

B1: CXCR3 (protein)
chain: MVLEVSDHQVLNDAEVAALLENFSSSYDYGENESDSCCTSPPCPQDFSLNFDRAFLPALYSLLFLLGLLGNGAVAAVLLSRRTALSSTDTFLLHLAVADTLLVLTLPLWAVDAAVQWVFGSGLCKVAGALFNINFYAGALLLACISFDRYLNIVHATQLYRRGPPARVTLTCLAVWGLCLLFALPDFIFLSAHHDERLNATHCQANFPQVGRTALRVLQLVAGFLLPLLVMAYCYAHILAVLLVSRGQRRLRAMRLVVVVVVAFALCWTPYHLVVLVDILMDLGALARNCGRESRVDVAKSVTSGLGYMHCCLNPLLYAFVGVKFRERMWMLLLRLGCPNQRGLQRQPSSSRRDSSWSETSEASYSGL
- Kd [3]: 10.4 nM

B2: CXCR3 (protein)
chain: MVLEVSDHQVLNDAEVAALLENFSSSYDYGENESDSCCTSPPCPQDFSLNFDRAFLPALYSLLFLLGLLGNGAVAAVLLSRRTALSSTDTFLLHLAVADTLLVLTLPLWAVDAAVQWVFGSGLCKVAGALFNINFYAGALLLACISFDRYLNIVHATQLYRRGPPARVTLTCLAVWGLCLLFALPDFIFLSAHHDERLNATHCQYNFPQVGRTALRVLQLVAGFLLPLLVMAYCYAHILAVLLVSRGQRRLRAMRLVVVVVVAFALCWTPYHLVVLVDILMDLGALARNCGRESRVDVAKSVTSGLGYMHCCLNPLLYAFVGVKFRERMWMLLLRLGCPNQRGLQRQPSSSRRDSSWSETSEASYSGL
- Kd [3]: 7.7 nM

B3: CXCR3 (protein)
chain: MVLEVSDHQVLNDAEVAALLENFSSSYDYGENESDSCCTSPPCPQDFSLNFDRAFLPALYSLLFLLGLLGNGAVAAVLLSRRTALSSTDTFLLHLAVADTLLVLTLPLWAVDAAVQWVFGSGLCKVAGALANINFYAGALLLACISFDRYLNIVHATQLYRRGPPARVTLTCLAVWGLCLLFALPDFIFLSAHHDERLNATHCQYNFPQVGRTALRVLQLVAGFLLPLLVMAYCYAHILAVLLVSRGQRRLRAMRLVVVVVVAFALCWTPYHLVVLVDILMDLGALARNCGRESRVDVAKSVTSGLGYMHCCLNPLLYAFVGVKFRERMWMLLLRLGCPNQRGLQRQPSSSRRDSSWSETSEASYSGL
- Kd [3]: 1.1 nM

B4: CXCR3 (protein)
chain: MVLEVSDHQVLNDAEVAALLENFSSSYDYGENESDSCCTSPPCPQDFSLNFDRAFLPALYSLLFLLGLLGNGAVAAVLLSRRTALSSTDTFLLHLAVADTLLVLTLPLWAVDAAVQWVFGSGLCKVAGALFNINFYAGALLLACISFDRYLNIVHATQLYRRGPPARVTLTCLAVWGLCLLFALPDFIFLSAHHDERLNATHCQYNFPQVGRTALRVLQLVAGFLLPLLVMAYCYAHILAVLLVSRGQRRLRAMRLVVVVVVAFALCWTPYHLVALVDILMDLGALARNCGRESRVDVAKSVTSGLGYMHCCLNPLLYAFVGVKFRERMWMLLLRLGCPNQRGLQRQPSSSRRDSSWSETSEASYSGL
- Kd [3]: 7.4 nM

B5: CXCR3 (protein)
chain: MVLEVSDHQVLNDAEVAALLENFSSSYDYGENESDSCCTSPPCPQDFSLNFDRAFLPALYSLLFLLGLLGNGAVAAVLLSRRTALSSTDTFLLHLAVADTLLVLTLPLWAVDAAVQWVFGSGLCKVAGALFNINFYAGALLLACISFDRYLNIVHATQLYRRGPPARVTLTCLAVWGLCLLFALPDFIFLSAHHDERLNATACQYNFPQVGRTALRVLQLVAGFLLPLLVMAYCYAHILAVLLVSRGQRRLRAMRLVVVVVVAFALCWTPYHLVVLVDILMDLGALARNCGRESRVDVAKSVTSGLGYMHCCLNPLLYAFVGVKFRERMWMLLLRLGCPNQRGLQRQPSSSRRDSSWSETSEASYSGL
- Kd [3]: 2.9 nM

B6: CXCR3 (protein)
chain: MVLEVSDHQVLNDAEVAALLENFSSSYDYGENESDSCCTSPPCPQDFSLNFDRAFLPALASLLFLLGLLGNGAVAAVLLSRRTALSSTDTFLLHLAVADTLLVLTLPLWAVDAAVQWVFGSGLCKVAGALFNINFYAGALLLACISFDRYLNIVHATQLYRRGPPARVTLTCLAVWGLCLLFALPDFIFLSAHHDERLNATHCQYNFPQVGRTALRVLQLVAGFLLPLLVMAYCYAHILAVLLVSRGQRRLRAMRLVVVVVVAFALCWTPYHLVVLVDILMDLGALARNCGRESRVDVAKSVTSGLGYMHCCLNPLLYAFVGVKFRERMWMLLLRLGCPNQRGLQRQPSSSRRDSSWSETSEASYSGL
- Kd [3]: 1.8 nM
